Measurements as given in US12018068B2, “Anti-O1 antibodies and uses thereof” (priority 2016, dated 2024).

What was measured:
[1] = system: LPS (O1); test: LPS neutralization assay, RAW264.7-lux NF-κB luciferase reporter; type: cell-based, murine
Description: LPS neutralization was assayed by utilizing a murine RAW264.7 macrophage cell line carrying a firefly luciferase reporter gene under the control of an NF-κB-responsive promoter (RAW264.7-lux). Serially diluted antibody stocks were mixed with LPS in a 1:1 ratio and incubated at 4° C. for 1 hr. Antibody/LPS mixture was then diluted 1:10 into assay plates containing pre-seeded RAW264.7-lux cells (5e3 cells/well), which were then placed at 37° C./5% CO2 for 2.5 hours. Following incubations, Steady Glo (Promega) was then added to each well and incubated for another 20 min protected from light. The relative light units (RLUs) were then measured using an Envision Multilabel plate reader (Perkin Elmer). The percentage of inhibition was determined by comparing RLU derived from assays with no antibodies to RLU obtained from anti-K. pneumoniae mAbs and a negative control mAb. Activation of TLR4 receptors by bacterial LPS leads to downstream activation of the NF-κB transcriptional regulator. A decrease in induction of NF-κB-responsive luciferase activity was used to quantify LPS neutralization activity by LPS mAbs.

[2] = system: K. pneumoniae strain Kp4211 lux; test: high throughput serum bactericidal assay (SBA), complement-dependent killing; type: cell-based, Klebsiella pneumoniae; details: for complement-dependent killing in SBA: FIG. 1B
Description: Peripheral blood mononuclear cells (PBMC) and sera were separated from buffy coats from healthy blood donors (N=567). PMBC were stored in liquid nitrogen whereas the plasma was stored at 4° C. To identify Klebsiella pneumoniae immune donors, all the available sera were tested for binding to Kp43816 and Kp4211 (LPS-O1 serotype), as well as to the unencapsulated mutant strain Kp43816ΔcpsB and the double mutant Kp43816ΔcpsBΔwaaL. […] In addition, all available sera were tested for their bactericidal activity in the presence of complement using a high-throughput serum bactericidal assay (SBA assay). Overnight cultures of luminescent K. pneumoniae strain 4211 (lux) were diluted in Muller Hinton II media to make OD600 to be 0.003. Equal volume of sera, 4211 lux, and baby rabbit serum (Cedarlane) were mixed in 384 well plates and incubated at 37° C. for two hours with shaking (250 rpm). The relative light units (RLUs) were then measured using an Envision Multilabel plate reader (Perkin Elmer). The percentage of killing was determined by comparing RLU derived from assays with no antibodies to RLU obtained from human sera.
The susceptibility of the K. pneumoniae strain Kp4211 lux to serum and antibody dependent killing was measured by high throughput serum bactericidal assay (SBA). Overnight cultures of luminescent K. pneumoniae strain 4211 (lux) were diluted in Muller Hinton II media to make OD600 to be 0.003. Equal volume of antibodies, 4211 lux, and baby rabbit serum (Cedarlane) were mixed in 384 well plates and incubated at 37° C. for two hours with shaking (250 rpm). The relative light units (RLUs) were then measured using an Envision Multilabel plate reader (Perkin Elmer). The percentage of killing was determined by comparing RLU derived from assays with no antibodies to RLU obtained from anti-K. pneumoniae mAbs and a negative control mAb.

[3] = system: K. pneumoniae capsule mutant strain 43816ΔcpsB Lux; test: bioluminescent opsonophagocytic killing (OPK) assay with HL-60 cells; type: cell-based, Klebsiella pneumoniae; details: for induction of OPK killing: FIG. 1C
Description: (§1) PBMC donors were ranked based on their binding titers as well as their SBA and OPK activity. OPK assays were performed as described with modifications (Wang, Q. et al. Target-Agnostic Identification of Functional Monoclonal Antibodies Against Klebsiella pneumoniae Multimeric MrkA Fimbrial Subunit J Infect Dis. 2016 Jun. 1; 213(11):1800-8). Briefly, log phase cultures of luminescent K. pneumoniae capsule mutant strain 43816ΔcpsB (43816ΔcpsB Lux) were diluted to ˜2×10^6 cells/ml. Bacteria, diluted baby rabbit serum providing complement (Cedarlane, pre-absorbed with Kp43816ΔcpsB, 1:10), dimethylformamide (DMF) differentiated HL-60 cells, and sera were mixed in 384-well plates and incubated at 37° C. for two hours with shaking (250 rpm). The relative light units (RLUs) were then measured using an Envision Multilabel plate reader (Perkin Elmer). The percentage of killing was determined by comparing RLU derived from assays with no antibodies to RLU obtained from human sera.
as §1, with “OPK” for “PBMC donors were ranked based on their binding titers as well as their SBA and OPK activity. OPK”, “al., J. Infect.” for “al. Target-Agnostic Identification of Functional Monoclonal Antibodies Against Klebsiella pneumoniae Multimeric MrkA Fimbrial Subunit J Infect”, “213:1800-8 (2016)).” for “2016 Jun. 1; 213(11):1800-8).”, “antibodies” for “sera”, “anti-K. pneumoniae mAbs and a negative control mAb.” for “human sera.”

[4] = system: purified O1 LPS; test: ELISA binding to purified O1 LPS; parameters: species or system Klebsiella pneumoniae; details: FIG. 1A
Description: Binding to purified O1 LPS was assayed by standard ELISA method. Briefly, ELISA plates (Nunc MaxiSorp) were coated with purified O1 LPS in PBS, pH 7.2, overnight at 4 C, followed by blocking the plates with PBS supplemented with 1% BSA (PBS-B). The coated plates were incubated with series dilutions of monoclonal antibodies for 1 h at room temperature. The plates were then washed with PBS containing 0.1% Tween-20 (PBS-T) before HRP-conjugated anti-human secondary antibodies were added for 1 hour followed by TMB TMB (3,3′,5,5′-Tetrametheylbenzidine) substrates. The absorbance of 450 nm was measured by microplate reader (Molecular Devices) and the data were plotted with Prism software.

[5] = system: Kp1131115 wild type and Kp1131115ΔwbbYZ strain; test: FACS binding to Kp1131115 wild type and Kp1131115ΔwbbYZ; parameters: species or system Klebsiella pneumoniae; details: Kp1131115ΔwbbYZ vs wild type
From the text: Klebsiella pneumoniae wbbYZ gene locus encodes D-Galactan II domain in LPS structure, which defines O1 serotype over O2.

[6] = system: γδ T cell recruitment, K. pneumoniae Kp8045 infection; test: flow cytometry of γδTCR+ T cells in lungs of infected mice; type: in vivo; details: for early γδ T cell recruitment, prophylaxis: 1e4 CFU Kp8045, FIG. 14A; for γδ T cell recruitment, treatment 1 hour post infection: 1e4 CFU Kp8045, FIG. 14B
Description: TLR4 signaling has been implicated in the recruitment and activation of γδ T cells, a key cell population in the innate immune defense of the mucosa. In order to examine the effect of LPS-neutralizing and LPS-non-neutralizing anti-O1 antibodies on γδ T cell recruitment, the percent of γδTCR^+ T cells was measured in the lungs of mice treated with anti-O1 antibodies and infected with K. pneumoniae (1e4 CFU Kp8045).

[7] = system: K. pneumoniae (1e4 CFU Kp8045); test: survival of wild type and IL-17A−/− mice after lethal K. pneumoniae infection; type: in vivo, Klebsiella pneumoniae; details: prophylactic treatment
From the text: γδ T cells are major producers of IL-17, which activates key antimicrobial pathways and the phagocytic function of neutrophils. […] Wild type and IL-17A−/− mice were prophylactically treated with c-IgG, 54H7, or KPE33 and infected with a lethal number of K. pneumoniae.

Row | Molecule | LPS neutralization [1] | SBA Kp4211lux IC50 [2] | complement-dependent killing in SBA [2] | complement-dependent killing (SBA) in primary screening ([2]; strain Kp4211 (LPS-O1)) | D Capsule OPK IC50 [3] | induction of OPK killing [3] | binding to purified O1 LPS [4] | effect of wbbYZ gene knockout on binding [5] | early γδ T cell recruitment, prophylaxis [6] | γδ T cell recruitment, treatment 1 hour post infection [6] | survival of IL-17A−/− mice compared to wild type mice [7] | LPS Neut (O1) IC50 [1]
1 | KPE33: human anti-K. pneumoniae O1 antigen antibody, VH SEQ ID NO:8, VL SEQ ID NO:9, isolated as IgG2 from donor #262 (antibody, V domains shown, KPE33 VH Amino Acid Sequence; KPE33 VL Amino Acid Sequence) VH: EVQLVESGGALVQPGGSLRLSCAVSGFIFDDYAIHWVRRAPGKGLEWVSGIAWKSGATNYADSVKGRFAISRDNSKKSMYLQMNSLGTEDTALYYCTRRRASGDDTFYYFDYWGQGTLVTVSS VL: EIVLTQSPATLSLSPGERATLSCRASQNVNTNLAWYQQRPGQSPRLLIYDASTRAAGLPARFSGSGSGTDFTLTISSLEPEDFAVYYCQQCTNWRYTFGQGTKLEIK | did not | 64 ng/mL | kill K. pneumoniae via complement-dependent killing | mediate complement-dependent killing | 2.5 ng/mL | induced OPK killing | bound to purified O1 LPS | completely abolished the binding | not | did not inhibit recruitment | significant reduction in survival | 
2 | 54H7: mouse hybridoma anti-O1 antigen antibody (Ms IgG3), VH SEQ ID NO:47, VL SEQ ID NO:48 (antibody, V domains shown, 54H7 VH; 54H7 VL Amino Acid Sequence) VH: QVHLQQPGSELVRPGASVTLSCKASGYTFTNYWMQWVKQRPGQGLEWIGNIYPGSGNTNYDEKFRSKATLTVDTSSSTAYMHLTSLTSEDSAVYYCTRNWNFDYWGQGTTLTVSS VL: DIQMTQSPSSLSASLGERVSLTCRASQDIGSSLNWLQQEPDGTIKRLIYATSSLDSGVPKRFSGSRSGSEYSLTISSLEAEDFVDYYCLQHTDSPYTFGGGTKLELK | neutralized LPS | 5.2 ng/mL | kill K. pneumoniae via complement-dependent killing |  | 2.5 ng/mL | induced OPK killing | bound to purified O1 LPS | completely abolished the binding | inhibited | did not inhibit recruitment | No difference in survival | <0.1 ng/mL
